Measured values from article PMC6212398 (Nature Communications, 2018).

B1: Hsp27 IPV peptide (native 9-mer EITIPVTFE) (peptide)
peptide: EITIPVTFE
notes: Human Hsp27 (HSPB1), C-terminal IPV (IXI) motif, 9-mer; source: synthetic peptide, bought: Genescript
B2: Hsp27 IPV H peptide with the second X residue (Pro) of IXIXV mutated to alanine (EITIAVTHE) (peptide)
peptide: EITIAVTHE
notes: Human Hsp27 (HSPB1) IPV peptide in the His-containing context with the proline of IPV mutated to alanine; source: synthetic peptide, bought: Genescript
B3: Hsp27 IPV H peptide (EITIPVTHE) (peptide)
peptide: EITIPVTHE
notes: Human Hsp27 (HSPB1) IPV 9-mer with the penultimate phenylalanine swapped for histidine (the residue at this position in the motif of BAG3); also called His-containing IPV peptide; chimeric peptide; source: synthetic peptide, bought: Genescript
B4: Hsp27 IPV H peptide with Val181 mutated to alanine (peptide)
chain: EITIPATHE
modifications: EITIPATHE. The paper numbers the peptide from E176, so printed Val181 (V of IPV) is UniProt V183. Peptide termini chemistry is not stated.
B5: Hsp27 IPV H peptide with Ile179 mutated to alanine (peptide)
chain: EITAPVTHE
modifications: EITAPVTHE. The paper numbers the peptide from E176, so printed Ile179 (I of IPV) is UniProt I181. Peptide termini chemistry is not stated.

Columns and labels:
Assay in all cases: ITC; peptide (1 mM) titrated into a cell with Hsp27 proteins (100 µM); SEC buffer (50 mM sodium phosphate, 100 mM NaCl); 25 °C; one-site binding model
Conditions in all cases: both partners purified
[1] = target: T1, Hsp27 alpha-crystallin domain (ACD, residues Q80–S176) (human, UniProt P04792 80-176)
T1 construct: Human Hsp27 (HSPB1), alpha-crystallin domain, residues Q80–S176; Used 15N-labelled (observed in HSQC) and unlabelled; Vector was a gift of the Klevit laboratory; also called Hsp27 ACD
T1 sequence (P04792 80-176): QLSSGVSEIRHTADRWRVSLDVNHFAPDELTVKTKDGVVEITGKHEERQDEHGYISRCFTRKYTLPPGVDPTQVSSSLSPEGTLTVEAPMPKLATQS

[2] = target: T2, Hsp27 3D (pseudo-phosphorylation mutant S15D, S78D, S82D) (human, UniProt P04792 1-205, S15 replaced with aspartate | S78 replaced with aspartate | S82 replaced with …)
T2 construct: Human Hsp27 (HSPB1) in which three serines (S15, S78 and S82) are replaced with aspartate; Vector was a gift of the Dickey laboratory; Compared throughout with the full-length wild type, so probably the whole protein
T2 sequence (P04792 whole entry S15D/S78D/S82D): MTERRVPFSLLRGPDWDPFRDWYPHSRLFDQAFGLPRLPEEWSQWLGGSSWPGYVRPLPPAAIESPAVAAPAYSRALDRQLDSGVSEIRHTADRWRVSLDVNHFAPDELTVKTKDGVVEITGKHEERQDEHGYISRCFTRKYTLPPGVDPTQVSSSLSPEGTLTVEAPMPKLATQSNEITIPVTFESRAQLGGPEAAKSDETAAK

[3] = target: T3, Hsp27 ΔNTD (residues 80–205) (human, UniProt P04792 80-205)
T3 construct: Human Hsp27 (HSPB1) without the N-terminal domain, residues 80–205; Heterogeneous mixture of 3–5 mers; source: E. coli BL21 (DE3), purified (Ni-NTA, size exclusion)
T3 sequence (P04792 80-205, stated change not applied): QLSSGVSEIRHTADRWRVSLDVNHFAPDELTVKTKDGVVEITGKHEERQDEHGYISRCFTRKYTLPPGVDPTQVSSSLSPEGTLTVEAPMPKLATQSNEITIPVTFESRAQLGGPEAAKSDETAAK

| Binder | Kd [1] [µM] | Kd [2] [µM] | Kd [3] [µM] |
| --- | --- | --- | --- |
| B1 | > 25 |  |  |
| B2 | ~5 |  |  |
| B3 | 11.5 | > 50 | 11.4 |
| B4 | > 25 |  |  |
| B5 | > 25 |  |  |
